# In publication PMC4889030 (Molecular cell, 2016):
# Like-named read-outs stand apart in the source and are kept apart here. Where no end group is shown, it is not given here.
# Legend:
# Experiment in all cases: pull-down
# [1] = target: T1, full length ^FlagCRBN expressed in CRBN-KO 293FT cells (human, UniProt Q96SW2 1-442)
# [2] = target: T1, full length ^FlagCRBN expressed in …; remark: listed apart in the source
# [3] = target: ^FlagCRBN H357Y (human, UniProt Q96SW2 1-442, H357Y)
# Chain of ^FlagCRBN H357Y (Q96SW2 whole entry H357Y): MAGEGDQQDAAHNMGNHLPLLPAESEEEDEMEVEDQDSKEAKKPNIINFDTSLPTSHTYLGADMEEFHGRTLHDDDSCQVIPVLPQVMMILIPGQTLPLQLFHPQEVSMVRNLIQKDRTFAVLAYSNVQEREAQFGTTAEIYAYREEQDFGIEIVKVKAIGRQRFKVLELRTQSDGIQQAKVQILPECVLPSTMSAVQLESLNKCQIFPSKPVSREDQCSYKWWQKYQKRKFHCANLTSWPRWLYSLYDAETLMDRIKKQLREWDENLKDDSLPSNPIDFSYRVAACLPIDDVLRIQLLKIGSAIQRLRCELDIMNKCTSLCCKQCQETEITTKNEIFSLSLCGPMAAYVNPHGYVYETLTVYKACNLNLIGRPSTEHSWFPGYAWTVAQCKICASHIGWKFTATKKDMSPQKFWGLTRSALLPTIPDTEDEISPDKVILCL
# T1 sequence (Q96SW2 whole entry): as the sequence (Q96SW2 whole entry H357Y) above, with Y357H counted along it
Binder,binding result [1],binding result [2],binding result [3]
"ASSHLNK(Ac)GIK(Ac)QVYMSLPQ (peptide, UniProt P15104 5-22, looked up, also: biotinylated, place not given here) [biotinylated synthetic GS peptide (amino acids 5-22 of GS), di-acetylated on K11 and K14]",binds,–,–
"ASSHLNKGIK(Ac)QVYMSLPQ (peptide, UniProt P15104 5-22, looked up, also: biotinylated, place not given here) [biotinylated synthetic GS peptide (amino acids 5-22 of GS), mono-acetylated on K14]",–,binds,–
"ASSHLNK(Ac)GIKQVYMSLPQ (peptide, UniProt P15104 5-22, looked up, also: biotinylated, place not given here) [biotinylated synthetic GS peptide (amino acids 5-22 of GS), mono-acetylated on K11]",–,binds,binds
